Results reported in the nanobody polyreactivity screen of Harvey et al. (2022).

Experiment: yeast display, Sf9 membrane polyspecificity reagent, FACS + sequencing; frameworks hold sequencing errors
Outline: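 After 36–48 hours of galactose induction, yeast (Saccharomyces cerevisiae BJ5465) displaying a synthetic nanobody library were stained at 4 °C for 1 hour with 10% biotinylated, detergent-solubilized Sf9 membrane reagent. Streptavidin microbeads enriched the stained cells before FACS sorting into low and high (top ~1%) gates on anti-HA and streptavidin fluorescence. Each clone's polyreactivity label reflects its gate of origin.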

| Sequence | polyreactivity (PSR sort gate) |
| --- | --- |
| QVQLVESGGGLVQAGGSLRLSCAASGSIFVPNAMGWYRQAPGKERELVAAISGIGGSTSYADSVKGRFTISRDNAKNTVYLQMNSLKPEDTAVYYCARADKLHTRGWGRWGSGSYSWGQGTQVTVSS | low polyreactivity |
| QVQLVESGGGLVQAGGSLRLSCAASGSIFVPYAMGWYIQAPGKERELVAAISSRGGSTYYADSVKGRFTISRDNAKNTVYLQMNSLKPEDTAVYYCNTDISRNYYWALYGYWGQGTQVTVSS | low polyreactivity |
| QVQLVESGGGLVQAGGSLRLSCAASGSIFVPYAMGWYRQAPGKERELVAAINHGGGRTYADSVKGRFTISRDNAKNTVYLQMNSLKPEDTAVYYCAADGAHKIGYYRYYYWGQGTQVTVSS | low polyreactivity |
| QVQLVESGGGLVQAGGSLRLSCAASGSIFVPYAMGWYRQAPGKERELVAVIRYRGGTTYYADSVKGRFTLSRDNAKNTVYLQMNSLKPEDTAVYYCEASARRYPPAAGVPYRYDYWGQGTQVTVSS | high polyreactivity |
| QVQLVESGGGLVQAGGSLRLSCAASGSIFVQYAMGWYRQAPGKERELVATISSSGGSTYYADSVKGRFTISRDNAKNTVYLQMNRLKPEDTAVYYCAADWTLDPSYGYYADDYWGQGTQVTVSS | low polyreactivity |
| QVQLVESGGGLVQAGGSLRLSCAASGSIFVRNAMGWYRQAPGKERELVAAISWRGGSTYYADSVKGRFTISRDNAKNTVYLQMNSLKPEDTAGYYCAARRWSPRSGLGYGYWGQGTQVTVSS | high polyreactivity |
| QVQLVESGGGLVQAGGSLRLSCAASGSIFVRNAMGWYRQAPGKERELVAGISASGGSTYYADSVKGRFTISRDNAKNTVYLQMNSLKPEDTAVYYCANKVSTRFARYRYDYWGQGTQVTVSS | high polyreactivity |
| QVQLVESGGGLVQAGGSLRLSCAASGSIFVRNGMGWYRQAPGKERELVASFTSGTITYYADSVKGRFTISRDNARNTVYLQMNRLKPDDTAVYYCAARRDRGRVKFYYWGQGTQVTVSS | high polyreactivity |
| QVQLVESGGGLVQAGGSLRLSCAASGSIFVRNTMGWYRQAPGKERELVATISSGGRTYYADSVKGRFTISRDNAKNTVYLQMNSLKPEETAVYYCAAGYSYAQYSYPFLSFAFGYWGQGTQVTVSS | high polyreactivity |
| QVQLVESGGGLVQAGGSLRLSCAASGSIFVRNVMGWYRQAPGKERELVAAISGSGGSTYYADSVKGRFTISRDNAKNTVYLQMNSLKPEDTAVYYCAAPRNLYGVYSYYYWGQGTQVTVSS | high polyreactivity |
| QVQLVESGGGLVQAGGSLRLSCAASGSIFVRYDMGWYRQAPGKERELVAAISWNGGRTYYADSVKGRFTISRDNAKNTVYLQMNSLKPEDTAVYYCNAVSKGLGSGLDYWGQGTQVTVSS | high polyreactivity |
| QVQLVESGGGLVQAGGSLRLSCAASGSIFVSNAMGWSRPAPGKDRELVAGINYSGGSTYYADSVKGRFTISRDNAKNTVYLQLTSLKPEDTAVYYCARRRPYQWPYNYWGQGTQVTVSS | high polyreactivity |
| QVQLVESGGGLVQAGGSLRLSCAASGSIFVSNAMGWYRQAPGKERELVAAISGGRSTYYADSVKGRFTISRDNAKNTVYLQMNSLKPEDTAVYYCAKKGGHRTYGYDSWGQGTQVTVSS | low polyreactivity |
| QVQLVESGGGLVQAGGSLRLSCAASGSIFVSNVMGWYRQSPGKERELVAAISSSGGRTNYADSVKGRFTISRDNAKNTVYLQMNSLKPEDTAVYYCAKAGRYANLPYGYWGQGTQVTVSS | high polyreactivity |
| QVQLVESGGGLVQAGGSLRLSCAASGSIFVSYAMGWYRQAPGKERELVAAISRSGGRTYYADSVKGRFTISRDNAKNTVYLQMNSLKPEDTAVYYCAADYTKSSSPWPGYYWGQGTQVTVSS | high polyreactivity |
| QVQLVESGGGLVQAGGSLRLSCAASGSIFVSYAMGWYRQAPGKERELVAAITRSGGSTYYADSVKGRFTISRDNAKNTVYLQMNSLKPEDTAVYYCAARSYLGAYRRYYWGQGTQVNVSS | high polyreactivity |
